In US20200291116A1 (ABEXXA BIOLOGICS, published 2020):

What was measured:
[1] = molecular target: T1, HLA-E*0103 (extracellular domain with beta-2-microglobulin, recombinant) (human); assay: peptide binding and in vitro refolding
[2] = molecular target: T1, HLA-E*0103 (extracellular domain with …); assay: in vitro refold, Superdex 75, SEC-HPLC, 3D12 binding

Binder: YLLPAIVHI [peptide YLLPAIVHI (RNA Helicase p68)]
- binding result [1]: binds

Binder: GLADKVYFL [peptide GLADKVYFL (CAD protein)]
- binding result [2]: binds
